The assay concerns the target ryanodine receptor type 1 (RyR1), endogenous in mouse myotubes (mouse (endogenous in mouse myotubes)) (UniProt E9PZQ0).
Sequence of UniProt E9PZQ0 (E9PZQ0 whole entry): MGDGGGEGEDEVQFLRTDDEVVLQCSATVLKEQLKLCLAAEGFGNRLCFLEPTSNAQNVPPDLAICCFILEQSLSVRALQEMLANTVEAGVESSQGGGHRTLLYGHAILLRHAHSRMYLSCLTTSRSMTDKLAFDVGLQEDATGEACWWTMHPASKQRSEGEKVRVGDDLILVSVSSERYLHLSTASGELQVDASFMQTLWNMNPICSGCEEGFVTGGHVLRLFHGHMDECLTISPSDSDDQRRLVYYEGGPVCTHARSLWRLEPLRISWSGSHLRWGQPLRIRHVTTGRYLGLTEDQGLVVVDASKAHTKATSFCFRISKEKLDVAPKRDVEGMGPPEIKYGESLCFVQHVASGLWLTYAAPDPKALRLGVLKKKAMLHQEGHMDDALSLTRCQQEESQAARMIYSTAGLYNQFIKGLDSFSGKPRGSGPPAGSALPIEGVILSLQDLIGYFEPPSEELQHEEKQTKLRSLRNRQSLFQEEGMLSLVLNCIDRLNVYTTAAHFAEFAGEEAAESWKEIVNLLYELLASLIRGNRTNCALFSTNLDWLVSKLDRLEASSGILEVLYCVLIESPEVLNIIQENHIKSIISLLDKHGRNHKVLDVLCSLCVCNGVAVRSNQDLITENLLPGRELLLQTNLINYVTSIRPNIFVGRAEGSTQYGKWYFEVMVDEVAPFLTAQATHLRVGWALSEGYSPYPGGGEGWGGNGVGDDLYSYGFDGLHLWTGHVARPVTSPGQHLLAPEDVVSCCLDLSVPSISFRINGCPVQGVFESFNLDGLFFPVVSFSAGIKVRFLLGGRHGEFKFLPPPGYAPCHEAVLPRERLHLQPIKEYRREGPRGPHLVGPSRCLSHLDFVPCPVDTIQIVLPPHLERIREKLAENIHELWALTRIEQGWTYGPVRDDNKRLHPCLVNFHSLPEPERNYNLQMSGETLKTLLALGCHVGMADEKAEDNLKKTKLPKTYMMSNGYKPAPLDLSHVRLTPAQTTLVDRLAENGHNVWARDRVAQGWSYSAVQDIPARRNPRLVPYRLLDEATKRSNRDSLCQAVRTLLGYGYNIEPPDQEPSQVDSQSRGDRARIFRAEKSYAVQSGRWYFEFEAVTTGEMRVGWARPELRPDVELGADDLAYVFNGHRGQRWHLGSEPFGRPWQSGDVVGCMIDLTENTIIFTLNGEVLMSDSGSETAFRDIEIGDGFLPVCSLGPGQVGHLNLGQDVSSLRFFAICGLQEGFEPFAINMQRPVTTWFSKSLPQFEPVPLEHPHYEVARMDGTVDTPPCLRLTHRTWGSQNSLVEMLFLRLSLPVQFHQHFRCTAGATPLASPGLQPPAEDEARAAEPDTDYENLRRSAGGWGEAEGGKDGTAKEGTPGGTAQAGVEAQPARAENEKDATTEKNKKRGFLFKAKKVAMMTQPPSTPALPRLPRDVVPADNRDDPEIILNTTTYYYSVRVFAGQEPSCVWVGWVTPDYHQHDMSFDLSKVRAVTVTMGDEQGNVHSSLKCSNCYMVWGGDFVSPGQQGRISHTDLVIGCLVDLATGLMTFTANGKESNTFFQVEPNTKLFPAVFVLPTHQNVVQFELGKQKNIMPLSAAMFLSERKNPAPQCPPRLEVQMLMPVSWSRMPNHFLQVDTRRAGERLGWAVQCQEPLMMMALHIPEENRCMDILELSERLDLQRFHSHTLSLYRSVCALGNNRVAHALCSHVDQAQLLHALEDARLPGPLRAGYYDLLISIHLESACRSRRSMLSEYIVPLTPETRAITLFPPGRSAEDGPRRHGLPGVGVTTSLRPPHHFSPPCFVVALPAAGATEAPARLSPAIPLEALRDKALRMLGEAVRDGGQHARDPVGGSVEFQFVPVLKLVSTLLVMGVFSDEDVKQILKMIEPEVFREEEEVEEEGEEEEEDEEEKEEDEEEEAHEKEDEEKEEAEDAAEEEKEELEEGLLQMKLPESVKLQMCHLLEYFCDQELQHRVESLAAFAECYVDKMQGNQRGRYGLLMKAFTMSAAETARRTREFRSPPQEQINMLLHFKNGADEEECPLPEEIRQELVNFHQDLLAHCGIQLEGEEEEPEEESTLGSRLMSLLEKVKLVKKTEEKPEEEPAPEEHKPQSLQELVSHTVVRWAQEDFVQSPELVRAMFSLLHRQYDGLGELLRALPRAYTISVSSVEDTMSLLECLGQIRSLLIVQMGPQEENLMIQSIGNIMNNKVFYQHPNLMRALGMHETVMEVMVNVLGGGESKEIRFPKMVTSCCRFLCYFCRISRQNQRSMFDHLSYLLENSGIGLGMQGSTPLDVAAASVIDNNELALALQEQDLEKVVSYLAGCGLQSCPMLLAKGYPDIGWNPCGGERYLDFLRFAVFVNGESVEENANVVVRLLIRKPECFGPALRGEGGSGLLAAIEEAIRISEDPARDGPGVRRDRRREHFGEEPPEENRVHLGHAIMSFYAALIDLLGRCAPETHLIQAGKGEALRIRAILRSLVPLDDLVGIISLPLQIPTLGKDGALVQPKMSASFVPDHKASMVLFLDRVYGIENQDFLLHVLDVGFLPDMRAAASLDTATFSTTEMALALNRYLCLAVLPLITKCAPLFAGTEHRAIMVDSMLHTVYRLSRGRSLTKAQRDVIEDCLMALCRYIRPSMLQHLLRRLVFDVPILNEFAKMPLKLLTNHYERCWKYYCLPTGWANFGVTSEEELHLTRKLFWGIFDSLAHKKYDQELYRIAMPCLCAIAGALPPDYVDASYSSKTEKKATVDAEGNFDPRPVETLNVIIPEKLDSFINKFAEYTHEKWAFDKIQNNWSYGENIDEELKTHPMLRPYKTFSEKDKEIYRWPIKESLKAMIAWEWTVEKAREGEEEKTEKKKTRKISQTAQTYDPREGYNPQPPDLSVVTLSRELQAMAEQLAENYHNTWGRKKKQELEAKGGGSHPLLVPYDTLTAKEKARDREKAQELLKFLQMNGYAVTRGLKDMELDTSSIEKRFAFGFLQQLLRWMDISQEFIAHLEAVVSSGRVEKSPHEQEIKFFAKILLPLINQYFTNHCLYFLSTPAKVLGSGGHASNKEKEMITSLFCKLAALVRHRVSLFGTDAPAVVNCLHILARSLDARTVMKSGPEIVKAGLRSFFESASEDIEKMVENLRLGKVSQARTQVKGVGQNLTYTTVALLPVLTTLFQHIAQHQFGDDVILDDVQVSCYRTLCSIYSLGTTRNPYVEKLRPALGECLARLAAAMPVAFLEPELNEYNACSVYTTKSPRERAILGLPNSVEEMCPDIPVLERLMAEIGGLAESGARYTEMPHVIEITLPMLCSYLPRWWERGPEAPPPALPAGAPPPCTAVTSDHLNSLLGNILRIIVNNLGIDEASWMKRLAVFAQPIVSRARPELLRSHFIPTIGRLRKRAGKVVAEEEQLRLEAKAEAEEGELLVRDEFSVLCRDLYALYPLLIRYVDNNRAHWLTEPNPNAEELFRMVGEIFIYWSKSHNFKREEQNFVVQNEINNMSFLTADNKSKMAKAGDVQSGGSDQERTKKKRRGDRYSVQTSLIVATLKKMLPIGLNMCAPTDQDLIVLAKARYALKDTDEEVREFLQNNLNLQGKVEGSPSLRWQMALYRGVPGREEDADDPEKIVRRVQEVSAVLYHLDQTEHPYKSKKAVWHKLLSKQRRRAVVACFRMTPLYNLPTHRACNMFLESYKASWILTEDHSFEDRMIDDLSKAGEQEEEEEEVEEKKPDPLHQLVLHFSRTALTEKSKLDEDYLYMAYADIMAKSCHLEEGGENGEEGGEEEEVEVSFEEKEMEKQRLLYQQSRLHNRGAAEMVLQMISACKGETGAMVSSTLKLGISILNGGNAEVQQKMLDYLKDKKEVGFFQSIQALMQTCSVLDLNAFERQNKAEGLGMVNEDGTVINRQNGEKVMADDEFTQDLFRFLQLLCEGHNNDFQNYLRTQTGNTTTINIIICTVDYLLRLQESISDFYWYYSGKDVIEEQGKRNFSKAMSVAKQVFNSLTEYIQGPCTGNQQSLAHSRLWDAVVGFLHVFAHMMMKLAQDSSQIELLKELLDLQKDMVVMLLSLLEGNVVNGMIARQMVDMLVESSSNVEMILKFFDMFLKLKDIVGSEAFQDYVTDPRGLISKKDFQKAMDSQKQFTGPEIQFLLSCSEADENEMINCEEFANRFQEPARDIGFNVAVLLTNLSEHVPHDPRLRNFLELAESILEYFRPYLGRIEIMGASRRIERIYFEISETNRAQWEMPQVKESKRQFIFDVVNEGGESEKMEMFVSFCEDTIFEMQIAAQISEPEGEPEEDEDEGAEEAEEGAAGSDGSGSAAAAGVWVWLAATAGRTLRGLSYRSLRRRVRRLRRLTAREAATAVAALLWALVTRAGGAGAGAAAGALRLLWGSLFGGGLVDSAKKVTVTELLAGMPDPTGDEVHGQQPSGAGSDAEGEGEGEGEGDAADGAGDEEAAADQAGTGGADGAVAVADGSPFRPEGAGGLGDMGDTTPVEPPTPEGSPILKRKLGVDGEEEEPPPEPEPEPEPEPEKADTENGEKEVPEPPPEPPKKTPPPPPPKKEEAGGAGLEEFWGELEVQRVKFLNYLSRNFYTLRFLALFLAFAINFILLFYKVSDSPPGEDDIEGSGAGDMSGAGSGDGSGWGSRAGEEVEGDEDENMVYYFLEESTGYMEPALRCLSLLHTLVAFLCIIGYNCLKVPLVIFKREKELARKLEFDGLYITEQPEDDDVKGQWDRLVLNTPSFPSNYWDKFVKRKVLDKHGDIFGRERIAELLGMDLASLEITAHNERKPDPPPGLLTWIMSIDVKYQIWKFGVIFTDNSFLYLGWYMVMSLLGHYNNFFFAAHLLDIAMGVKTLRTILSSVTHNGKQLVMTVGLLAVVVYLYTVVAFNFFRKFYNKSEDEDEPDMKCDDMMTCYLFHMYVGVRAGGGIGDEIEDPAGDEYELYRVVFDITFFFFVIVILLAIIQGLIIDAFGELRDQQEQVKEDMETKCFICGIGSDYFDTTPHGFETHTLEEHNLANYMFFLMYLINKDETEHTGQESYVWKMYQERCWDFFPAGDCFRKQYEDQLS

“H458 CCPGCC ß1a-CFP (construct 21) (natural protein)” showed an intramolecular FRET efficiency (C-terminal CFP to FlAsH at H458) of construct 21 in ß1 KO myotubes (control without native ß1 subunits) of 0.12.
